Source: the supplement of paper PMC10724198
± gives the standard deviation of the averaged measurements.

Columns and labels:
[1] = tested on: Saccharomyces cerevisiae; test: protein stability index of tFT-peptide fusion (C-terminal peptide) (PSI (0-1 scale)); higher = more stable (slower turnover)
Protocol: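 MPS profiling in S. cerevisiae of the tFT-X12 degron library: putative degron peptides plus stable controls, 12 aa, fused to the C-terminus of a sfGFP-mCherry timer. Cells are FACS-sorted into 8 mCherry/sfGFP bins and deep-sequenced. PSI runs from 0 (unstable) to 1 (stable). Backgrounds are wild type, das1Δ and doa10Δ at 30 °C, and wild type, das1Δ, cdc34-1 and cdc53-1 at 37 °C; 2-3 technical replicates each.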

[2] = tested on: Saccharomyces cerevisiae; test: as above; conditions: genetic background: wild type; temperature: 30 C
[3] = genetic background: cdc34-1, temperature: 37 C
[4] = genetic background: cdc53-1, temperature: 37 C
[5] = genetic background: das1 deletion, temperature: 30 C
[6] = genetic background: das1 deletion, temperature: 37 C
[7] = genetic background: doa10 deletion, temperature: 30 C
[8] = genetic background: wild type, temperature: 30 C
[9] = genetic background: wild type, temperature: 37 C
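Note: PSI is a weighted mean of sequencing reads over stability bins, variants kept only with over 10 reads, mCherry proximal and sfGFP distal, peptide attached via GGGS linker.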

SSVFLGWLIVCY
protein stability index [1, 3]: 0.0861 ± 0.0015 | protein stability index [1, 4]: 0.115 ± 0.033 | protein stability index [1, 5]: 0.173 ± 0.043 | protein stability index [1, 6]: 0.2851 ± 0.0027 | protein stability index [1, 7]: 0.154 ± 0.0099 | protein stability index [1, 8]: 0.168 ± 0.021 | protein stability index [1, 9]: 0.255 ± 0.027 | protein stability index [2]: 0.245 ± 0.0037

ILVLKFLRLLSA
protein stability index [1, 3]: 0.525 ± 0.015 | protein stability index [1, 4]: 0.555 ± 0.024 | protein stability index [1, 5]: 0.444 ± 0.034 | protein stability index [1, 6]: 0.563 ± 0.012 | protein stability index [1, 7]: 0.343 ± 0.017 | protein stability index [1, 8]: 0.365 ± 0.028 | protein stability index [1, 9]: 0.5261 ± 0.0015 | protein stability index [2]: 0.448 ± 0.031

DAIVLGSVVVCR
protein stability index [1, 3]: 0.515 ± 0.032 | protein stability index [1, 4]: 0.563 ± 0.017 | protein stability index [1, 5]: 0.393 ± 0.029 | protein stability index [1, 6]: 0.5719 ± 0.0051 | protein stability index [1, 7]: 0.342 ± 0.0065 | protein stability index [1, 8]: 0.39 ± 0.038 | protein stability index [1, 9]: 0.55 ± 0.013 | protein stability index [2]: 0.414 ± 0.026

ILLYCVLIDPYS
protein stability index [1, 3]: 0.203 ± 0.008 | protein stability index [1, 4]: 0.2634 ± 0.0013 | protein stability index [1, 5]: 0.221 ± 0.043 | protein stability index [1, 6]: 0.352 ± 0.0093 | protein stability index [1, 7]: 0.219 ± 0.011 | protein stability index [1, 8]: 0.229 ± 0.025 | protein stability index [1, 9]: 0.361 ± 0.057 | protein stability index [2]: 0.344 ± 0.032

CRWHLRIVRGLM
protein stability index [1, 3]: 0.5609 ± 0.0048 | protein stability index [1, 4]: 0.665 ± 0.00068 | protein stability index [1, 5]: 0.593 ± 0.01 | protein stability index [1, 6]: 0.6603 ± 0.0027 | protein stability index [1, 7]: 0.29 ± 0.019 | protein stability index [1, 8]: 0.276 ± 0.056 | protein stability index [1, 9]: 0.415 ± 0.019 | protein stability index [2]: 0.377 ± 0.0026

VTTTWTWTVRLC
protein stability index [1, 3]: 0.538 ± 0.045 | protein stability index [1, 4]: 0.631 ± 0.016 | protein stability index [1, 5]: 0.54 ± 0.018 | protein stability index [1, 6]: 0.656 ± 0.034 | protein stability index [1, 7]: 0.0752 ± 0.019 | protein stability index [1, 8]: 0.0807 ± 0.024 | protein stability index [1, 9]: 0.149 ± 0.0059 | protein stability index [2]: 0.15 ± 0.024

LPTLDCPLHRLF
protein stability index [1, 3]: 0.694 ± 0.026 | protein stability index [1, 4]: 0.8 ± 0.0093 | protein stability index [1, 5]: 0.641 ± 0.012 | protein stability index [1, 6]: 0.7615 ± 0.0076 | protein stability index [1, 7]: 0.674 ± 0.016 | protein stability index [1, 8]: 0.654 ± 0.0035 | protein stability index [1, 9]: 0.733 ± 0.016 | protein stability index [2]: 0.559 ± 0.084

EWSRVVRWNWDG
protein stability index [1, 3]: 0.528 ± 0.046 | protein stability index [1, 4]: 0.69857 ± 0.00044 | protein stability index [1, 5]: 0.637 ± 0.011 | protein stability index [1, 6]: 0.707 ± 0.0084 | protein stability index [1, 7]: 0.121 ± 0.0082 | protein stability index [1, 8]: 0.148 ± 0.014 | protein stability index [1, 9]: 0.266 ± 0.015 | protein stability index [2]: 0.254 ± 0.027

TALSRLFECFLS
protein stability index [1, 3]: 0.654 ± 0.052 | protein stability index [1, 4]: 0.744 ± 0.026 | protein stability index [1, 5]: 0.701 ± 0.028 | protein stability index [1, 6]: 0.768 ± 0.01 | protein stability index [1, 7]: 0.328 ± 0.0048 | protein stability index [1, 8]: 0.343 ± 0.03 | protein stability index [1, 9]: 0.499 ± 0.035 | protein stability index [2]: 0.461 ± 0.046

FFCYFFEFFICG
protein stability index [1, 3]: 0.326 ± 0.054 | protein stability index [1, 4]: 0.419 ± 0.013 | protein stability index [1, 5]: 0.339 ± 0.028 | protein stability index [1, 6]: 0.468 ± 0.0082 | protein stability index [1, 7]: 0.337 ± 0.015 | protein stability index [1, 8]: 0.323 ± 0.011 | protein stability index [1, 9]: 0.441 ± 0.025 | protein stability index [2]: 0.382 ± 0.017

LSPPPLSFPFSA
protein stability index [1, 3]: 0.704 ± 0.0072 | protein stability index [1, 4]: 0.753 ± 0.02 | protein stability index [1, 5]: 0.623 ± 0.012 | protein stability index [1, 6]: 0.737 ± 0.011 | protein stability index [1, 7]: 0.643 ± 0.017 | protein stability index [1, 8]: 0.666 ± 0.024 | protein stability index [1, 9]: 0.7118 ± 0.0069 | protein stability index [2]: 0.136 ± 0.021

SPPHSPSALPPP
protein stability index [1, 3]: 0.674 ± 0.025 | protein stability index [1, 4]: 0.726 ± 0.0086 | protein stability index [1, 5]: 0.656 ± 0.023 | protein stability index [1, 6]: 0.732 ± 0.019 | protein stability index [1, 7]: 0.685 ± 0.022 | protein stability index [1, 8]: 0.669 ± 0.0081 | protein stability index [1, 9]: 0.701 ± 0.0078 | protein stability index [2]: 0.587 ± 0.15

WLCLFRFLGVAY
protein stability index [1, 3]: 0.18 ± 0.024 | protein stability index [1, 4]: 0.245 ± 0.04 | protein stability index [1, 5]: 0.218 ± 0.033 | protein stability index [1, 6]: 0.3 ± 0.0097 | protein stability index [1, 7]: 0.185 ± 0.005 | protein stability index [1, 8]: 0.216 ± 0.012 | protein stability index [1, 9]: 0.2749 ± 0.0024 | protein stability index [2]: 0.345 ± 0.018

SLCPFLCILCFG
protein stability index [1, 3]: 0.327 ± 0.0041 | protein stability index [1, 4]: 0.321 ± 0.036 | protein stability index [1, 5]: 0.28 ± 0.023 | protein stability index [1, 6]: 0.402 ± 0.0015 | protein stability index [1, 7]: 0.245 ± 0.0064 | protein stability index [1, 8]: 0.259 ± 0.021 | protein stability index [1, 9]: 0.347 ± 0.0085 | protein stability index [2]: 0.355 ± 0.009

EERKIFLKVVKV
protein stability index [1, 3]: 0.545 ± 0.036 | protein stability index [1, 4]: 0.496 ± 0.016 | protein stability index [1, 5]: 0.398 ± 0.025 | protein stability index [1, 6]: 0.5748 ± 0.0007 | protein stability index [1, 7]: 0.218 ± 0.021 | protein stability index [1, 8]: 0.305 ± 0.027 | protein stability index [1, 9]: 0.4656 ± 0.0028 | protein stability index [2]: 0.463 ± 0.0094

LFLPFLPTLALL
protein stability index [1, 3]: 0.795 ± 0.029 | protein stability index [1, 4]: 0.823 ± 0.013 | protein stability index [1, 5]: 0.686 ± 0.032 | protein stability index [1, 6]: 0.7901 ± 0.0056 | protein stability index [1, 7]: 0.598 ± 0.021 | protein stability index [1, 8]: 0.623 ± 0.022 | protein stability index [1, 9]: 0.7359 ± 0.0023 | protein stability index [2]: 0.231 ± 0.012

LVLCCGFWFRAV
protein stability index [1, 3]: 0.619 ± 0.046 | protein stability index [1, 4]: 0.606 ± 0.038 | protein stability index [1, 5]: 0.464 ± 0.031 | protein stability index [1, 6]: 0.612 ± 0.0063 | protein stability index [1, 7]: 0.27 ± 0.0049 | protein stability index [1, 8]: 0.286 ± 0.029 | protein stability index [1, 9]: 0.501 ± 0.02 | protein stability index [2]: 0.381 ± 0.025

PCVLAIYVWIRS
protein stability index [1, 3]: 0.0479 ± 0.016 | protein stability index [1, 4]: 0.169 ± 0.019 | protein stability index [1, 5]: 0.154 ± 0.037 | protein stability index [1, 6]: 0.2704 ± 0.0022 | protein stability index [1, 7]: 0.083 ± 0.016 | protein stability index [1, 8]: 0.107 ± 0.016 | protein stability index [1, 9]: 0.173 ± 0.011 | protein stability index [2]: 0.163 ± 0.054

FVCFSFFFPFLL
protein stability index [1, 3]: 0.401 ± 0.0099 | protein stability index [1, 4]: 0.441 ± 0.0071 | protein stability index [1, 5]: 0.37 ± 0.033 | protein stability index [1, 6]: 0.5099 ± 0.001 | protein stability index [1, 7]: 0.163 ± 0.01 | protein stability index [1, 8]: 0.148 ± 0.016 | protein stability index [1, 9]: 0.238 ± 0.0042 | protein stability index [2]: 0.237 ± 0.057
